This is an account of results in paper PMC10872586 (Cell reports, 2023).

The target of one assay is mini-HA #4900 (Designed influenza HA stem #4900, …, stabilised). Nature of the assay: BLI. The note with it: both partners purified.
For assay [1], the target named is HA protein from H1N1 A/Solomon Islands/3/2006 (Influenza A virus (A/Solomon …, UniProt A7Y8I1, strain)). Nature of the assay: BLI. The note with it: both partners purified.

B1: CR9114 with germline heavy chain, Fab (Fab, V domains shown)
VH: QVQLVQSGAEVKKPGSSVKVSCKASGGTFSSYAISWVRQAPGQGLEWMGGIIPIFGTANYAQKFQGRVTITADKSTSTAYMELSSLRSEDTAVYYCARHGNYYYYYGMDVWGQGTTVTVSS
VL: SYVLTQPPAVSGTPGQRVTISCSGSDSNIGRRSVNWYQQFPGTAPKLLIYSNDQRPSVVPDRFSGSKSGTSASLAISGLQSEDEAEYYCAAWDDSLKGAVFGGGTQLTVL
notes: also called CR9114 gHC; WT; source: Expi293F, co-transfected, purified (CaptureSelect CH1-XL)
Molecule B1 came in with an equilibrium dissociation constant (Kd) with mini-HA #4900 of 6.2 µM.

B2: CR9114 gHC Fab VL A96R (Fab, V domains shown)
VH: QVQLVQSGAEVKKPGSSVKVSCKASGGTFSSYAISWVRQAPGQGLEWMGGIIPIFGTANYAQKFQGRVTITADKSTSTAYMELSSLRSEDTAVYYCARHGNYYYYYGMDVWGQGTTVTVSS
VL: SYVLTQPPAVSGTPGQRVTISCSGSDSNIGRRSVNWYQQFPGTAPKLLIYSNDQRPSVVPDRFSGSKSGTSASLAISGLQSEDEAEYYCAAWDDSLKGRVFGGGTQLTVL
notes: Kabat numbering; source: Expi293F, co-transfected, purified (CaptureSelect CH1-XL)
For B2, the dissociation constant (Kd) with mini-HA #4900 was 13 µM; in assay [1], 21.5 µM.

B3: CR9114 gHC Fab VL A96S (Fab, V domains shown)
VH: QVQLVQSGAEVKKPGSSVKVSCKASGGTFSSYAISWVRQAPGQGLEWMGGIIPIFGTANYAQKFQGRVTITADKSTSTAYMELSSLRSEDTAVYYCARHGNYYYYYGMDVWGQGTTVTVSS
VL: SYVLTQPPAVSGTPGQRVTISCSGSDSNIGRRSVNWYQQFPGTAPKLLIYSNDQRPSVVPDRFSGSKSGTSASLAISGLQSEDEAEYYCAAWDDSLKGSVFGGGTQLTVL
notes: as for B2
With B3, the dissociation constant Kd with mini-HA #4900 came out at 1.9 µM; in assay [1], 1.6 µM.

B4: CR9114 gHC Fab VL W91Y (Fab, V domains shown)
VH: QVQLVQSGAEVKKPGSSVKVSCKASGGTFSSYAISWVRQAPGQGLEWMGGIIPIFGTANYAQKFQGRVTITADKSTSTAYMELSSLRSEDTAVYYCARHGNYYYYYGMDVWGQGTTVTVSS
VL: SYVLTQPPAVSGTPGQRVTISCSGSDSNIGRRSVNWYQQFPGTAPKLLIYSNDQRPSVVPDRFSGSKSGTSASLAISGLQSEDEAEYYCAAYDDSLKGAVFGGGTQLTVL
notes: as for B2
As to B4, the dissociation constant (Kd) in the assay with mini-HA #4900 was determined as 45.7 µM; in assay [1], 27.2 µM.

B5: CR9114 gHC Fab VL A96V (Fab, V domains shown)
VH: QVQLVQSGAEVKKPGSSVKVSCKASGGTFSSYAISWVRQAPGQGLEWMGGIIPIFGTANYAQKFQGRVTITADKSTSTAYMELSSLRSEDTAVYYCARHGNYYYYYGMDVWGQGTTVTVSS
VL: SYVLTQPPAVSGTPGQRVTISCSGSDSNIGRRSVNWYQQFPGTAPKLLIYSNDQRPSVVPDRFSGSKSGTSASLAISGLQSEDEAEYYCAAWDDSLKGVVFGGGTQLTVL
notes: as for B2
Turning to B5, the Kd in the assay with mini-HA #4900 amounted to 3.8 µM; in assay [1], 15.8 µM.

B6: CR9114 gHC Fab VL W91F (Fab, V domains shown)
VH: QVQLVQSGAEVKKPGSSVKVSCKASGGTFSSYAISWVRQAPGQGLEWMGGIIPIFGTANYAQKFQGRVTITADKSTSTAYMELSSLRSEDTAVYYCARHGNYYYYYGMDVWGQGTTVTVSS
VL: SYVLTQPPAVSGTPGQRVTISCSGSDSNIGRRSVNWYQQFPGTAPKLLIYSNDQRPSVVPDRFSGSKSGTSASLAISGLQSEDEAEYYCAAFDDSLKGAVFGGGTQLTVL
notes: as for B2
On to B6, for which the dissociation constant Kd worked out at 9.7 µM with mini-HA #4900 and 9.6 µM in assay [1].

Broadly, the Kd is the free concentration of one partner at which half of the binding sites on the other are occupied at equilibrium, for simple one-to-one binding. The low end stands for tighter binding, the high end for weaker binding.
